Here are results for 2 variants from PMC10267580.

B1: Rab6B^Q72L, GTPase domain (residues 8-176), constitutively active mutant [mouse] / ELKS1_RBD, Rab-binding domain of ELKS1 (residues 849-922) [rat] (parent)
chain 1: RKHLEEVLEMKQEALLAAISEKDANIALLELSSSKKKTQEEVAALKREKDRLVQQLKQQTQNRMKLMADNYEDD
chain 2: GNPLRKFKLVFLGEQSVGKTSLITRFMYDSFDNTYQATIGIDFLSKTMYLEDRTVRLQLWDTAGLERFRSLIPSYIRDSTVAVVVYDITNLNSFQQTSKWIDDVRTERGSDVIIMLVGNKTDLADKRQITIEEGEQRAKELSVMFIETSAKTGYNVKQLFRRVASALPG

Where only a bound is given, the exact number is not on record here.

Variants of B1 are the subject of the first test. The test can be described thus: ITC. The note with it: with ELKS1_RBD.
As usually defined, the Kd is the concentration at which binding is half-saturated. As for chain 2 L4E, the Kd is > 50 µM.

The test is the same for the next values; noted with them: with Rab6B^Q72L.
For the variant chain 1 S20A, the Kd stood at 26 µM.
